Source: paper doi:10.1101/2023.08.28.555081 (bioRxiv, 2023)

Target: the molecule itself
Test: negative-stain electron microscopy

Protein | binding result
Light-Dependent Protochlorophyllide Oxidoreductase, PORB isoform of A. thaliana, wild type (enzyme) QTAATSSPTVTKSVDGKKTLRKGNVVVTGASSGLGLATAKALAETGKWNVIMACRDFLKAERAAKSVGMPKDSYTVMHLDLASLDSVRQFVDNFRRTETPLDVLVCNAAVYFPTAKEPTYSAEGFELSVATNHLGHFLLARLLLDDLKKSDYPSKRLIIVGSITGNTNTLAGNVPPKANLGDLRGLAGGLNGLNSSAMIDGGDFDGAKAYKDSKVCNMLTMQEFHRRFHEETGVTFASLYPGCIASTGLFREHIPLFRALFPPFQKYITKGYVSETESGKRLAQVVSDPSLTKSGVYWSWNNASASFENQLSEEASDVEKARKVWEISEKLVGLA | binds
Light-Dependent Protochlorophyllide Oxidoreductase (AtPORB) Y177F_H319A double mutant (enzyme, A. thaliana) QTAATSSPTVTKSVDGKKTLRKGNVVVTGASSGLGLATAKALAETGKWNVIMACRDFLKAERAAKSVGMPKDSYTVMHLDLASLDSVRQFVDNFRRTETPLDVLVCNAAVFFPTAKEPTYSAEGFELSVATNHLGHFLLARLLLDDLKKSDYPSKRLIIVGSITGNTNTLAGNVPPKANLGDLRGLAGGLNGLNSSAMIDGGDFDGAKAYKDSKVCNMLTMQEFHRRFHEETGVTFASLYPGCIASTGLFREAIPLFRALFPPFQKYITKGYVSETESGKRLAQVVSDPSLTKSGVYWSWNNASASFENQLSEEASDVEKARKVWEISEKLVGLA | binds
